Source: patent publication US20240279309A1
Where “and” joins values, the source holds several entries; their conditions need not be identical. Equal values may be shown once.

Target: CD40 receptor on cells (HEK293 reporter cells expressing CD40; primary human B cells) (human) (UniProt P25942)
Test: cell-based or functional assay

Sequence of CD40 receptor on cells (HEK293 reporter cells expressing CD40; primary human B cells) (human) (P25942 21-277): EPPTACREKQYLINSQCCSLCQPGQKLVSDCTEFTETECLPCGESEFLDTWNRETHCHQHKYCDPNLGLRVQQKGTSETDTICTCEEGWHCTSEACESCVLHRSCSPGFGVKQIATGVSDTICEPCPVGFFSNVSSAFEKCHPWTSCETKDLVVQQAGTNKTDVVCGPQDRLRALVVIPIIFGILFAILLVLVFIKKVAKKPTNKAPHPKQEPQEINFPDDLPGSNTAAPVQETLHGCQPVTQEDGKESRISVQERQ
Sequence of anti-CD40 monoclonal antibody corresponding to sequence 21.4.1 of U.S. Pat. No. 7,338,660 B2 (VH): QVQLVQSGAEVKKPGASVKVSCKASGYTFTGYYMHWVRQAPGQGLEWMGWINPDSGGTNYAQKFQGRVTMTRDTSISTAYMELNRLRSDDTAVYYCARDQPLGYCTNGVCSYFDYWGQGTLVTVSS
Sequence of anti-CD40 monoclonal antibody corresponding to sequence 21.4.1 of U.S. Pat. No. 7,338,660 B2 (VL): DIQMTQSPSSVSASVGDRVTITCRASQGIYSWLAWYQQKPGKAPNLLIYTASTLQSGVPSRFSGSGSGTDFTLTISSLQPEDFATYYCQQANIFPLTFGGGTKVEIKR

For “anti-CD40 monoclonal antibody corresponding to sequence 21.4.1 of U.S. Pat. No. 7,338,660 B2”, the EC50 [nM], % CD86, human B cells with FAP-CHO, w HSA was 0.88 nM and 0.3 nM, the EC50 [nM], % CD86, human B cells with FAP-CHO, w/o HSA was 1.9 nM and 0.51 nM and the EC50 [nM], MFI CD86, human B cells with FAP-CHO, w HSA was 0.51 nM and 2.05 nM. For the same substance, the EC50 [nM], MFI CD86, human B cells with FAP-CHO, w/o HSA was 1.13 nM and 4.73 nM, the Efficacy [MFI at highest dose], MFI CD86, human B cells with FAP-CHO, w HSA was 1530 MFI and 1870 MFI and the Efficacy [MFI at highest dose], MFI CD86, human B cells with FAP-CHO, w/o HSA was 1340 MFI and 2060 MFI. For the same substance, the Efficacy [MFI at highest dose], MFI CD86, human B cells with WT-CHO (no FAP), w HSA was 1470 MFI and 1900 MFI and the Efficacy [MFI at highest dose], MFI CD86, human B cells with WT-CHO (no FAP), w/o HSA was 1390 MFI and 2050 MFI.
